This data set concerns the molecule itself. The data set can be described thus: non-reducing SDS-PAGE with Western blot; lysates of transfected COS-7 cells harvested after 72 h; equal amounts of protein separated by SDS-PAGE under non-reducing conditions; immunoblot with anti-fibin-2 antibody.

B1: fibin (mouse), wild type (natural protein, UniProt Q9CQS3 19-217, looked up)
chain: YFDGPLYPEMSNGTLHHYFVPDGDYEENDDPEKCQLLFRVSDRRRCSQGEGGQASSLLSLTLREEFTVLGRQVEDAGRVLEGISKSISYDLDGEESYGKYLRRESHQIGDAYSNSDKSLTELESKFKQGQEQDSRQESRLNEDFLGMLVHTRSLLKETLDISVGLRDKYELLAHTIRSHGTRLGRLKSDYLEGGAQKTG
modifications: N-glycosylated at Asn30
notes: mouse fibin; also called WT fibin; wild-type fibin; source: COS-7, transfected (pcDps vector), in lysate
On to B1, for which the “stoichiometry N” value was 2.

(Values after article PMC3115872, “Characterization of the expression, promoter activity and molecular architecture of fibin” (BMC Biochemistry, 2011).)
